Reference: patent publication US10450368

Legend:
CH505.M10D8gp120 = assay: direct-binding ELISA
[1] = biological target: CH505w136.B12D8gp120 (HIV-1); assay: direct-binding ELISA
CH505.M19D8gp120 = assay: direct-binding ELISA
[2] = biological target: CH505w136.B4D8gp120 (HIV-1); assay: direct-binding ELISA
[3] = biological target: CH505w160.C11D8gp120 (HIV-1); assay: direct-binding ELISA
CH505.M7D8gp120/293F = assay: direct-binding ELISA
[4] = biological target: CH505w160.T2D8gp120 (HIV-1); assay: direct-binding ELISA
[5] = biological target: CH505.TF mutant gp120 M20 (HIV-1); assay: direct-binding ELISA
[6] = biological target: CH505_w137V201B12.D11gp120 (HIV-1); assay: direct-binding ELISA
[7] = biological target: CH505w160.C4D8gp120 (HIV-1); assay: direct-binding ELISA
[8] = biological target: CH505w136.B2D8gp120/293F (HIV-1); assay: direct-binding ELISA
[9] = biological target: CH505_w137V209C12.D11gp120 (HIV-1); assay: direct-binding ELISA
CH505.M5D8gp120293F = assay: direct-binding ELISA
[10] = biological target: CH505w136.B8D8gp120 (HIV-1); assay: direct-binding ELISA
[11] = biological target: CH505w160.C12D8gp120 (HIV-1); assay: direct-binding ELISA
[12] = biological target: CH505w160.T4D8gp120/293F (HIV-1); assay: direct-binding ELISA
[13] = biological target: CH505.TF mutant gp120 M6 (HIV-1); assay: direct-binding ELISA
[14] = biological target: CH505w136.B10D8gp120 (HIV-1); assay: direct-binding ELISA
[15] = biological target: CH505w136.B29D8gp120 (HIV-1); assay: direct-binding ELISA
[16] = biological target: CH505w160.A1D8gp120 (HIV-1); assay: direct-binding ELISA
[17] = biological target: CH505w136.B18D8gp120 (HIV-1); assay: direct-binding ELISA
[18] = biological target: CH505w136.B27D8gp120 (HIV-1); assay: direct-binding ELISA
[19] = biological target: CH505w160.C14D8gp120 (HIV-1); assay: direct-binding ELISA
[20] = biological target: CH505w136.B36D8gp120 (HIV-1); assay: direct-binding ELISA
[21] = biological target: CH505w136.B20D8gp120 (HIV-1); assay: direct-binding ELISA
[22] = biological target: CH505.TF mutant gp120 M8 (HIV-1); assay: direct-binding ELISA
[23] = biological target: CH505w160.D1D8gp120 (HIV-1); assay: direct-binding ELISA
[24] = biological target: CH505w160.D5D8gp120/293F (HIV-1); assay: direct-binding ELISA
CH505.M9D8gp120/293F = assay: direct-binding ELISA
CH505.M11D8gp120/293F = assay: direct-binding ELISA
[25] = biological target: CH505w136.B3D8gp120/293F (HIV-1); assay: direct-binding ELISA
CH505.M21D8gp120/293F = assay: direct-binding ELISA
[26] = biological target: CH505w160.C2D8gp120 (HIV-1); assay: direct-binding ELISA
[27] = biological target: CH505w136.B5D8gp120 (HIV-1); assay: direct-binding ELISA
[28] = biological target: CH505 TF loop D mutant M8 Env (pseudovirus) (HIV-1); assay: cell-based or functional assay
[29] = biological target: CH505 TF loop D mutant M20 Env (pseudovirus) (HIV-1); assay: cell-based or functional assay
[30] = biological target: CH505 TF loop D mutant M7 Env (pseudovirus) (HIV-1); assay: cell-based or functional assay
[31] = biological target: CH505 TF loop D mutant M9 Env (pseudovirus) (HIV-1); assay: cell-based or functional assay

CH248 (antibody) was tested, and the LogAUC (CH505.M10D8gp120) was 13.8, the LogAUC [1] was 12.9 and the LogAUC (CH505.M19D8gp120) was 13.2. The LogAUC [2] was 13.4, the LogAUC [3] was 10.7 and the LogAUC (CH505.M7D8gp120/293F) was 12.4. For the same substance, the LogAUC [4] was 8.34, the LogAUC [5] was 13.2 and the LogAUC [6] was 13.4. For the same substance, the LogAUC [7] was 10.5, the LogAUC [8] was 13.4 and the LogAUC [9] was 14.7. It also gave a LogAUC (CH505.M5D8gp120293F) of 11, a LogAUC [10] of 12.3 and a LogAUC [11] of 12.9. The LogAUC [12] was 13.5, the LogAUC [13] was 13.6 and the LogAUC [14] was 11.5. For the same substance, the LogAUC [15] was 12.3, the LogAUC [16] was 8.62 and the LogAUC [17] was 14.3. It also gave a LogAUC [18] of 12.9, a LogAUC [19] of 10.3 and a LogAUC [20] of 14.4. The LogAUC [21] was 12.9, the LogAUC [22] was 12.3 and the LogAUC [23] was 8.75. It also gave a LogAUC [24] of 7.84, a LogAUC (CH505.M9D8gp120/293F) of 13 and a LogAUC (CH505.M11D8gp120/293F) of 13.6. For the same substance, the LogAUC [25] was 14, the LogAUC (CH505.M21D8gp120/293F) was 13.8 and the LogAUC [26] was 11.1. It also gave a LogAUC [27] of 14.6.

CH235.9 N30T (antibody) was tested, and the fold increase of neutralization IC50 against CH235.9 [28] was 37 fold, the neutralization IC50, TZM-bl pseudovirus assay [28] was 24.3 mg/L and the neutralization IC50, TZM-bl pseudovirus assay [29] was > 44 mg/L. The neutralization IC50, TZM-bl pseudovirus assay [30] was > 44 mg/L and the neutralization IC50, TZM-bl pseudovirus assay [31] was > 44 mg/L.
